In the Immune Epitope Database (IEDB):

Key:
HLA-B*27:03 [1] = assay: IEDB peptide-MHC binding, purified MHC/competitive/fluorescence; filed as Kd, often an IC50 or EC50 that approximates it; ≥ and ≤ were set here for values at or beyond the usual limits of such assays; conditions: source organism: Lechiguanas virus
HLA-B*15:17 [2] = assay: as above; conditions: source organism: Lechiguanas virus
HLA-B*39:01 [3] = assay: as above; conditions: source organism: Lechiguanas virus
HLA-A*26:01 [4] = assay: as above; conditions: source organism: Lechiguanas virus
HLA-B*51:01 [5] = assay: as above; conditions: source organism: Lechiguanas virus
HLA-B*48:01 = assay: IEDB peptide-MHC binding, purified MHC/direct/fluorescence; filed as Kd, often an IC50 or EC50 that approximates it; ≥ and ≤ were set here for values at or beyond the usual limits of such assays; conditions: source organism: Orthohantavirus andesense
HLA-A*02:01 = assay: as above
HLA-B*40:01 = assay: as above; conditions: source organism: Orthohantavirus andesense
HLA-A*02:12 = assay: as above
HLA-A*03:01 = assay: as above
HLA-A*24:03 = assay: as above
HLA-A*31:01 = assay: as above; conditions: source organism: Orthohantavirus andesense
HLA-B*57:01 = assay: as above
HLA-B*27:05 = assay: as above; conditions: source organism: Orthohantavirus andesense
HLA-B*18:01 = assay: as above
HLA-A*01:01 = assay: as above; conditions: source organism: Orthohantavirus andesense
HLA-B*07:02 = assay: as above; conditions: source organism: Orthohantavirus andesense
HLA-A*11:01 = assay: as above; conditions: source organism: Orthohantavirus andesense
HLA-A*23:01 = assay: as above
HLA-A*68:02 = assay: as above
HLA-A*29:02 = assay: as above
HLA-B*44:02 = assay: as above; conditions: source organism: Orthohantavirus andesense
HLA-B*15:01 = assay: as above
HLA-B*58:01 = assay: as above; conditions: source organism: Orthohantavirus andesense
HLA-B*08:01 = assay: as above; conditions: source organism: Orthohantavirus andesense
HLA-A*69:01 = assay: as above
HLA-B*46:01 = assay: as above
HLA-A*02:16 = assay: as above
HLA-A*02:11 = assay: as above
HLA-B*27:03 [6] = assay: as above
HLA-B*15:17 [7] = assay: as above
HLA-B*39:01 [8] = assay: as above; conditions: source organism: Vibrio cholerae O395
HLA-A*26:01 [9] = assay: as above
HLA-B*51:01 [10] = assay: as above
HLA-A*02:19 = assay: as above
HLA-A*02:03 = assay: as above
[11] = source organism: Orthohantavirus andesense
[12] = source organism: Rio Mamore hantavirus
[13] = source organism: Vibrio cholerae O395
[14] = source organism: Giardia lamblia ATCC 50803

Question: What does the source list for YRRKLTNPA?
Answer: Kd (HLA-B*27:03 [1]): ≥ 20 µM; Kd (HLA-B*15:17 [2]): ≥ 20 µM; Kd (HLA-B*39:01 [3]): ≥ 20 µM; Kd (HLA-A*26:01 [4]): ≥ 20 µM; Kd (HLA-B*51:01 [5]): ≥ 20 µM; Kd (HLA-B*48:01): ≥ 20 µM; Kd (HLA-A*02:01; [11]): ≥ 20 µM; Kd (HLA-B*40:01): ≥ 20 µM; Kd (HLA-A*02:12; [12]): ≥ 20 µM; Kd (HLA-A*03:01; [11]): ≥ 20 µM; Kd (HLA-A*24:03; [12]): ≥ 20 µM; Kd (HLA-A*31:01): ≥ 20 µM; Kd (HLA-B*57:01; [11]): ≥ 20 µM; Kd (HLA-B*27:05): ≥ 20 µM; Kd (HLA-B*18:01; [11]): ≥ 20 µM; Kd (HLA-A*01:01): ≥ 20 µM; Kd (HLA-B*07:02): ≥ 20 µM; Kd (HLA-A*11:01): ≥ 20 µM; Kd (HLA-A*23:01; [12]): ≥ 20 µM; Kd (HLA-A*68:02; [12]): ≥ 20 µM; Kd (HLA-A*29:02; [11]): ≥ 20 µM; Kd (HLA-B*44:02): ≥ 20 µM; Kd (HLA-B*15:01; [11]): ≥ 20 µM; Kd (HLA-B*58:01): ≥ 20 µM; Kd (HLA-B*08:01): 1.12 µM; Kd (HLA-A*69:01; [11]): ≥ 20 µM; Kd (HLA-B*46:01; [11]): ≥ 20 µM

Question: With VVSEIDLQW as the sequence, how does the Kd (HLA-A*02:16; [13]) read?
Answer: ≥ 20 µM

Question: And the Kd (HLA-A*02:11; [13])?
Answer: ≥ 20 µM

Question: And the Kd (HLA-A*02:01; [13])?
Answer: ≥ 20 µM

Question: What about the Kd (HLA-A*02:12; [13]) of the same sequence?
Answer: ≥ 20 µM

Question: And the Kd (HLA-B*27:03 [6]; [13])?
Answer: ≥ 20 µM

Question: And the Kd (HLA-A*03:01; [13])?
Answer: ≥ 20 µM

Question: What about the Kd (HLA-A*24:03; [13]) of the same sequence?
Answer: ≥ 20 µM

Question: And the Kd (HLA-B*15:17 [7]; [13])?
Answer: 0.002 µM

Question: What about the Kd (HLA-B*39:01 [8]) of the same sequence?
Answer: ≥ 20 µM

Question: And the Kd (HLA-B*57:01; [13])?
Answer: ≥ 20 µM

Question: And the Kd (HLA-B*18:01; [13])?
Answer: ≥ 20 µM

Question: What about the Kd (HLA-A*23:01; [13]) of the same sequence?
Answer: ≥ 20 µM

Question: And the Kd (HLA-A*26:01 [9]; [13])?
Answer: ≥ 20 µM

Question: What about the Kd (HLA-A*68:02; [13]) of the same sequence?
Answer: ≥ 20 µM

Question: And the Kd (HLA-B*51:01 [10]; [13])?
Answer: ≥ 20 µM

Question: And the Kd (HLA-A*02:19; [13])?
Answer: ≥ 20 µM

Question: And the Kd (HLA-A*29:02; [13])?
Answer: ≥ 20 µM

Question: And the Kd (HLA-B*15:01; [13])?
Answer: ≥ 20 µM

Question: What about the Kd (HLA-A*69:01; [13]) of the same sequence?
Answer: ≥ 20 µM

Question: And the Kd (HLA-A*02:03; [13])?
Answer: ≥ 20 µM

Question: What about the Kd (HLA-B*46:01; [13]) of the same sequence?
Answer: ≥ 20 µM

Question: What does the source list for MHDPHSIPL?
Answer: Kd (HLA-A*02:16; [14]): ≥ 20 µM; Kd (HLA-A*02:11; [14]): ≥ 20 µM; Kd (HLA-A*02:01; [14]): ≥ 20 µM; Kd (HLA-A*02:12; [14]): ≥ 20 µM; Kd (HLA-B*27:03 [6]; [14]): ≥ 20 µM; Kd (HLA-A*03:01; [14]): ≥ 20 µM; Kd (HLA-A*24:03; [14]): ≥ 20 µM; Kd (HLA-B*15:17 [7]; [14]): ≥ 20 µM; Kd (HLA-B*57:01; [14]): ≥ 20 µM; Kd (HLA-B*18:01; [14]): ≥ 20 µM; Kd (HLA-A*23:01; [14]): ≥ 20 µM; Kd (HLA-A*26:01 [9]; [14]): ≥ 20 µM; Kd (HLA-A*68:02; [14]): ≥ 20 µM; Kd (HLA-B*51:01 [10]; [14]): ≥ 20 µM; Kd (HLA-A*02:19; [14]): ≥ 20 µM; Kd (HLA-A*29:02; [14]): ≥ 20 µM; Kd (HLA-B*15:01; [14]): ≥ 20 µM; Kd (HLA-A*69:01; [14]): ≥ 20 µM; Kd (HLA-A*02:03; [14]): ≥ 20 µM; Kd (HLA-B*46:01; [14]): ≥ 20 µM
